The test system of series [1] is Saccharomyces cerevisiae. The experiment in a line: protein stability index of tFT-peptide fusion (C-terminal peptide) (PSI (0-1 scale)); higher = more stable (slower turnover). How it is done: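 MPS profiling in S. cerevisiae of the tFT-X12 degron library: putative degron peptides plus stable controls, 12 aa, fused to the C-terminus of a sfGFP-mCherry timer. Cells are FACS-sorted into 8 mCherry/sfGFP bins and deep-sequenced. PSI runs from 0 (unstable) to 1 (stable). Backgrounds are wild type, das1Δ and doa10Δ at 30 °C, and wild type, das1Δ, cdc34-1 and cdc53-1 at 37 °C; 2-3 technical replicates each.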

The test system of series [2] is Saccharomyces cerevisiae. Described as above. The conditions noted are these: genetic background: wild type; temperature: 30 C.
Where [3] appears, read: genetic background: cdc34-1, temperature: 37 C.
Where [4] appears, read: genetic background: cdc53-1, temperature: 37 C.
Where [5] appears, read: genetic background: das1 deletion, temperature: 30 C.
Where [6] appears, read: genetic background: das1 deletion, temperature: 37 C.
Where [7] appears, read: genetic background: doa10 deletion, temperature: 30 C.
Where [8] appears, read: genetic background: wild type, temperature: 30 C.
Setting [9] is: genetic background: wild type, temperature: 37 C.

± gives the standard deviation of the averaged measurements.
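Note: PSI is a weighted mean of sequencing reads over stability bins, variants kept only with over 10 reads, mCherry proximal and sfGFP distal, peptide attached via GGGS linker.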

Regarding VCNSIPLTPPPA, the protein stability index amounted to 0.679 ± 0.031 in series [1] (setting [3]); 0.7272 ± 0.0045 in series [1] (setting [4]); 0.618 ± 0.025 in series [1] (setting [5]); 0.716 ± 0.015 in series [1] (setting [6]); 0.6171 ± 0.00098 in series [1] (setting [7]); 0.641 ± 0.026 in series [1] (setting [8]). Besides, the protein stability index in series [1] (setting [9]) came out at 0.703 ± 0.033. On to VSGITLPFLMFH, for which the protein stability index in series [1] (setting [3]) came out at 0.287 ± 0.055; in series [1] (setting [4]) it was 0.242 ± 0.034; in series [1] (setting [5]), 0.348 ± 0.022; in series [1] (setting [6]), 0.458 ± 0.012; in series [1] (setting [7]), 0.635 ± 0.0033; in series [1] (setting [8]), 0.329 ± 0.063. The protein stability index in series [1] (setting [9]) stood at 0.426 ± 0.0043. On to VSGSFRVCFRVW, for which the protein stability index came out at 0.612 ± 0.048 in series [1] (setting [3]); 0.629 ± 0.0076 in series [1] (setting [4]); 0.521 ± 0.032 in series [1] (setting [5]); 0.608 ± 0.015 in series [1] (setting [6]); 0.538 ± 0.024 in series [1] (setting [7]); 0.517 ± 0.012 in series [1] (setting [8]). The sequence further registered a protein stability index in series [1] (setting [9]) of 0.5981 ± 0.004. Take VWWWGGVGWLMV: the protein stability index stood at 0.571 ± 0.047 in series [1] (setting [3]); 0.601 ± 0.026 in series [1] (setting [4]); 0.52 ± 0.01 in series [1] (setting [5]); 0.625 ± 0.025 in series [1] (setting [6]); 0.386 ± 0.015 in series [1] (setting [7]); 0.412 ± 0.019 in series [1] (setting [8]). Also, the protein stability index in series [1] (setting [9]) was found to be 0.544 ± 0.012. In the case of YMLSMIYEIEMM, the protein stability index in series [2] amounted to 0.578 ± 0.04.

As to YNRALPGGQAML, the protein stability index in series [2] amounted to 0.795 ± 0.039. Still for that read-out and setting: under YPHPPRPSNQLF stands 0.615 ± 0.0079; under YPIRPRYSPAGN, 0.721 ± 0.043; under YPPCSPGPLAPS, 0.672 ± 0.026. In the case of YPPPPLPPPRPP, in series [2], the protein stability index amounted to 0.555 ± 0.015. As to YPPYPSHSSLHT, in series [2], the protein stability index amounted to 0.6987 ± 0.0062. YPSDLRPPSSPI: the protein stability index in series [2] is 0.7512 ± 0.0041. For the sequence YPSTESPAGLAL, in series [2], the protein stability index stood at 0.726 ± 0.025. The same measure, in the same setting: the result for YPTQSPSPAPPT reads 0.644 ± 0.099. On the same count and under the same terms, the result for YQDDGRRPGFVI reads 0.675 ± 0.013; that for YQDGLCYYFCTT, 0.559 ± 0.02. In turn, YQSHFERSGVAR showed a protein stability index in series [2] of 0.674 ± 0.077. In turn, YRFFGGYWETGW returned a protein stability index in series [2] of 0.744 ± 0.033. Still for that read-out and setting: under YRLCEARVQSDN stands 0.685 ± 0.022. The same measure, in the same setting: under YRSLFPAPPLHP stands 0.6747 ± 0.0026; under YRSTPTGPPRPT, 0.758 ± 0.13. On the same count and under the same terms, the result for YSASPLSCICPP reads 0.652 ± 0.053; that for YSFVKEFLNHRY, 0.681 ± 0.036. YSGLNRVPDFCH registered a protein stability index in series [2] of 0.676 ± 0.039. Same read-out and setting: the result for YSGRGLISNHGY reads 0.723 ± 0.043; that for YSLQSCGFLANE, 0.642 ± 0.03; that for YTPPNTLCPPVA, 0.703 ± 0.24.

For YTSHRGKVYMSV, the protein stability index in series [2] is 0.632 ± 0.019. Consider YTTVRGETRSQL, for which, in series [2], the protein stability index is 0.727 ± 0.017. The sequence YVARRRPHPTGP yielded a protein stability index in series [2] of 0.778 ± 0.17. Turning to YVFFPNGGLRLG, the protein stability index in series [2] amounted to 0.564 ± 0.022. The same measure, in the same setting: under YVGGGAGVLLVL stands 0.623 ± 0.014; under YVGLSSRSFLSF, 0.687 ± 0.033. With YVLLDFFFFFLV, the protein stability index in series [1] (setting [3]) came out at 0.216 ± 0.044; in series [1] (setting [4]) it was 0.329 ± 0.029; in series [1] (setting [5]) it was 0.24 ± 0.017; in series [1] (setting [6]) it was 0.356 ± 0.043; in series [1] (setting [7]), 0.211 ± 0.0032; in series [1] (setting [8]), 0.182 ± 0.06. In series [1] (setting [9]), this sequence had a protein stability index of 0.255 ± 0.032.

Take YVSSYILPVTRV: the protein stability index in series [2] is 0.603 ± 0.045. In series [2], YVTPALRPTSSR gave a protein stability index of 0.728 ± 0.031.

In series [2], YWAPYVWMFGFR displayed a protein stability index of 0.565 ± 0.0088.

Turning to YYPRGIYHNSMT, in series [2], the protein stability index was 0.713 ± 0.033.

Source of the values: the supplement of paper PMC10724198.
